Tests used:
Assay in all cases: co-IP
[1] = target: PfGAPM1-HA (P. falciparum) (UniProt Q8IE80)
[2] = target: PfGAPM2-GFP (P. falciparum) (UniProt Q8IFN1)
[3] = target: PfGAPM3-HA (P. falciparum)

Substance | percent of the total ALV in the sample that was precipitated [1] [%] | percent of the total ALV in the sample that was precipitated [2] [%] | percent of the total ALV in the sample that was precipitated [3] [%] | percent of the protein in the sample that was precipitated [3] [%] | percent of the protein in the sample that was precipitated [1] [%] | percent of the protein in the sample that was precipitated [2] [%]
PfALV4 (natural protein) | 17 | 26 | 16 | – | – | –
PfGAP45 (from UniProt Q8I5I8 1-204) (natural protein) | – | – | – | < 10 | – | –
PfGAP50 (natural protein) | – | – | – | < 10 | < 10 | < 10

— PMC2757237
